Laboratory results taken from article PMC6290791, “microRNA-29b mediates fibrotic induction of human xylosyltransferase-I in human dermal fibroblasts via the Sp1 pathway”.

Target: Sp3 (UniProt Q02447 1-781)
Test: EMSA; 5 mM MgCl2; 10 mM Tris pH 7.5, 50 mM KCl, 1 mM DTT, 75 ng/ul poly(dI-dC), 0.25 mg/ml BSA, 40 fmol probe, 1 ug protein, 20 min room temperature; Sp3 buffer plus 5% glycerol, 5 mM MgCl2, 0.025% NP-40; 6% PAGE in 0.5x TBE
Conditions: protein: commercial; label: 5'-biotin on both strands; blunt

Sequence of Sp3 (Q02447 whole entry): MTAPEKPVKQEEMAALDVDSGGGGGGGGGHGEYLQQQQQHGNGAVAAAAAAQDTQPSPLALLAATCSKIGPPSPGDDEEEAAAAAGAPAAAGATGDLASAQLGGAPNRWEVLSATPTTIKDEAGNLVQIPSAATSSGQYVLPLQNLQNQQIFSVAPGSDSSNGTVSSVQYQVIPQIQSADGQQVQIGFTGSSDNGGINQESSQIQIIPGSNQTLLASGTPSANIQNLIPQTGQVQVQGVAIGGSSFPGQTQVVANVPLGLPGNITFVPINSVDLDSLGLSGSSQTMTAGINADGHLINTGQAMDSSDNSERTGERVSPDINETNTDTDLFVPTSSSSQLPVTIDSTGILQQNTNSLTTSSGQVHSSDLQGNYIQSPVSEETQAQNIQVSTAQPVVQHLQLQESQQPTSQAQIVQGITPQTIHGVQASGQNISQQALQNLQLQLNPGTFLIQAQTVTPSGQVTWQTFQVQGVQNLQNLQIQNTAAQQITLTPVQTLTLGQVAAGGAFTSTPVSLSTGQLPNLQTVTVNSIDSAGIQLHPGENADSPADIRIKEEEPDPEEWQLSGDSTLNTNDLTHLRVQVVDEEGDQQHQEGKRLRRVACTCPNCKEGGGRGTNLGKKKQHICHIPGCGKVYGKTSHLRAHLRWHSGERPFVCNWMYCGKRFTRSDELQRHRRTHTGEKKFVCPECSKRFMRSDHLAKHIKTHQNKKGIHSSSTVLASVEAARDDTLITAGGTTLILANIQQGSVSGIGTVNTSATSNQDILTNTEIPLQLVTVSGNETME

Row | Binder | binding signal
1 | SP1.2 (dsDNA) DNA 1: CTGATCGCCCCCACCCCCTTCCTTT DNA 2: AAAGGAAGGGGGTGGGGGCGATCAG | 99.3 % of strongest band
2 | SP1.4 (dsDNA) DNA 1: CCCAGGCCCCGCCCTCTCCGCCTCG DNA 2: CGAGGCGGAGAGGGCGGGGCCTGGG | 83.4 % of strongest band
3 | SP1.3 (dsDNA) DNA 1: TCCTCCCTCGGCTCCTCCCCCAGGC DNA 2: GCCTGGGGGAGGAGCCGAGGGAGGA | 100 % of strongest band
